According to the DeepSol protein solubility set:

Assay: soluble on expression in E. coli; label from the status in PepcDB or PDB records
With “RTDNLGLAPYGRVDLSGGSFGTFRRSVKLGSGRIGRHWAVDARLSKIGSDGYVDRGSVDLKSYFAQVGYFGSNTALRFITFGGKEVTGIAWNGLSKEDEAKYGRRYNSAGLMYVDAQGVPHYYHNTDNYEQRHYHAIMTHSFSPSVILNLTAHYTAGYGYTDEYRTGRKLKEYALQPYVENSVTVKKTDLIRQKYLDNDFGGLIGSLNWHTGAWDLQFGASGNIYKGDHFGRITYIKKYNQPLAPDFEYYRNRADKREGAAFAKANWQITPELNMYADLQYRTIGYTINGITDEYDEVQGSMQHIDLDKTFRFLNPKAGLTYSFDDAHTAYASVAVAHREPNRTNYTEAGIGQYPTPERLIDYELGYRYASPLLSAGVGLYYMQYKDQLVLDGRLSDVGQMLTSNVPDSYRMGLELTLGWQILPRLLRWDASFTMSRNKIDRYVQYTSVYDADYNWLELKEETLESTDIAYSPNVIAGSMLTLSHAGFEMAWTSRFVSKQYLDNTQRSDRMLSSYWVNDLRLGYVLPVHFVKRVALGVQLNNLFNLMYASNAYIYDAGYVQASGELSAYADLRYYPQAGFNALGSLTIDF” the “soluble on expression in E. coli” value was “not soluble”.
In the case of “MITELRPNPYQPRKHFNKEAIQELSASIKEHGILQPLIARKSIKGYEIVAGERRYRAAKEAGLEKVPAVVRQLNEQQMMEFALLENLQREDLNPMEEAMAYQMLMNELNVTQEQLAKCLGKSRPYIANYTRLLSLPSFVQDMIANGQLSMAHGRTLLTIKDEEQLKSLLKRIEKEGLNVRQLEKIVQEINQSVSRETKQVKKERNIFFIERETFLREKFGTDVKIKETKKEKGKIEIEFFNKEDLNRILELLAQKN”, the “soluble on expression in E. coli” value is reported as “not soluble”.
For “MAAQRIRAANASGLPRCKSEGTLIDLSEGFSETSFNDVKVPSPSALLVDNPTPFGNAKEVIAIKDYCPNNFTTLKFSKGDHLYVLDTSGGEWWYAHNTTEMGYIPSSYVQPLNYRNSTLSDSGMIDNLPDSPEEVAKELDLLGGGWTDDQKESGRPYSNNPFWNGVRTNPFLNGNAQPSTDELNPKSTVDLLLFDTGTSSFTESSSATTNSTGNIFDELPATNGLQVEQPVKRDNPFFRSKRSYSLSELSVLQAKSDAPPTSSFFTGLKSPVPEQFQSREDFRTAWLNHRKLARSCHDLDLLGQSPGWGQTQAVETNIVCKLDSSGGSVQLPDTNISIHVPEGHVAPGETQQISMKALLDPPLDLNSDRSTSVSPVVEVKLSNLEVSTFIILEMKVSAEVKGDIFSKSTVVLQCLRSDSKEGPYVPIPLAYSYGDTIQVQLDNLEPCMYLAIVAQGPNILYPSTVWDFINKRVTVGLYGPKHIHPSFKTVVTIFGHDCAPKTLLVSEVTRQAPSPAPVALQLWGKHQFILSRPQDLRVCMFSNMTNYEVKANEQARVVRGFQMKLGKVSRLIFSVISQNPNELSDFTLRVQVKDDQDTILTQFCVQTPQPPPKSAIKPSGQRRFLKKNEVGKIILSPFVVTTKYPTFQDRPVSSLKFGKLLKTVVRQNKSHYLLEYKKGDVVALLSEERIRLKGQLWTKEWYIGYYQGKVGLVHTKNVLVVGKARPSLFSGPELSTSVLLEQILRPCKFLTYIYASVRTLLMENISSWRAFADALGYGNLPLTFFCRAELDSEPERVASVLEKLKEDCNNPDNKDRKSFQKELVMALLKMDCQGLVVRLIQDFVLLTTAVEVAQRWRELAEKLAKVSKQQMDAYESPHRDRNGVVDSEAMWKPAYDFLLTWSHQIGDSYRDVIQELHIGLDKMKNPITRRWKHLTGTLILVNSLDILRAAAFSPADHDDFVI”, the “soluble on expression in E. coli” value was “soluble”.
For “MSLDKRLFLDPDTAIERLQRLQQALEMGVSSLMALVTTDWRCYGYMERHINEIRTAVDKVELFLKEYLHFVKGAVANAACLPELILHNKMKRELQRVEDSHQILSQTSHDLNECSWSLNILAINKPQNKCDDLDRFVMVAKTVPDDAKQLTTTINTNAEALFRPGPGSLHLKNGPESIMNSTEYPHGGSQGQLLHPGDHKAQAHNKALPPGLSKEQAPDCSSSDGSERSWMDDYDYVHLQGKEEFERQQKELLEKENIMKQNKMQLEHHQLSQFQLLEQEITKPVENDISKWKPSQSLPTTNSGVSAQDRQLLCFYYDQCETHFISLLNAIDALFSCVSSAQPPRIFVAHSKFVILSAHKLVFIGDTLTRQVTAQDIRNKVMNSSNQLCEQLKTIVMATKMAALHYPSTTALQEMVHQVTDLSRNAQLFKRSLLEMATEGHHHHHH”, the “soluble on expression in E. coli” value was “soluble”.
In the case of “MSLSYPWPDAGTALNAISTPMPVIDEDRLAANILRAQSYLDAHGKTFRPHIKTHKIPAIAKQQLQAGAIGINCQKVSEAEVFADAGFEDILITYNILGAAKLSRLKALNARIGRLSVVADSAVTIAGLADTFDAARPLAVLVECDTGGKRCGVQTPEAALALAEQIVSASGLIFRGILTYPAPGGAEMVEKFIRETMALLATKGIDCPVRSSGGSPDFYSAHLVASATEHRAGTYIYNDRSMLRAGHCSAGDLAMHVLATVVSKPTADRAVLDSGSKALTSDLLGFNDYGLLEGYEGAKIISLSEEHAVVDLSGCTGARPEIGDVVQVVPNHTCVVSNLFDRMVFHRNGVVTRVEQVAARGTVWEGHHHHHH”, the “soluble on expression in E. coli” value is reported as “soluble”.
In the case of “MSAPTTFSVALHNETATAQLMADLALLVGPGDVITLTGDLGAGKTAAARAMIRYLADDEALEVPSPTFTLVQGYELPPFPVMHADLYRVEDESELEEIGLSPLPDATLVLIEWPERAPSALPEDRIDIALTHRPALGSNARAADITGYGKSAAQVARLKALREFLDASGYLDAMRRRMAGDASTRSYARLLRDDEIVILMNFPQRPDGAALYNGKSYSAAVHLAENVKPFVAIDEGLRAQGISAPAIHHADLDHGFLISEDFGSEGVIEGNPPRPIPERYEAATDVLAVLHGKTLPETLPLDGQSYAIPVFDTEAMLIEIGLMPEWYLPDRNAPLSEPKRAEFFAMWRELLKKPLAAPRTWIIRDYHSPNLIWLGMRTGIERVGVIDFQDTVLGPQSYDVVSLLQDARIDVPENLELTLLSRYIKARRAGDASFDPAGFAELYAIMSAQRNTRLLGTFARLNRRDGKPHYLRHQPRIWTYLQRSLAHPALSHLRDWYLANVPPPQRPSQEPAPEPPQGLEHHHHHH”, the “soluble on expression in E. coli” value is reported as “soluble”.
With “MSTLQAAAHGRIVQLSRIRKEIADLAKNKRRFIKDFRKIEKCKDIFQFKIIGDGVLYKNMIFTLTLDVNVEYPFKPPYLKFCHNVYHPNVDPVTCELCSPMLLQENWKPETTMEDVLLNLIVLLNEPDLSRPVNIDAAHDYIHNKVEFVKKSTELAKKWN” the “soluble on expression in E. coli” value was “not soluble”.
For “MKPKKLSLLLTILPMIIAATGCHSQQESKVDITPHCINLQADSLYRQAMTLMESSCDVDSTRKCIRFLDKALAIDSLNPDYYGMKAKLLSEMGELDSALYIQTLAMEKNAITGEYLFQLGLLQAAKDMHAEAHESFGKSKVFLQAVLKQYPDSLGAFILAEAANSLYENKDSLFMRNIDEIRKRFPERLLEIEMTRRVKPHSLVNQIRRIKIEKDYNIDFDMDSLVEATVNKDLEHHHHHH”, the “soluble on expression in E. coli” value was “not soluble”.
For “MSLKKIGIIGAGGIARAHATALSTIKNAELVGVYDINQQNAESFVKTFGGKSFENVDELIDASEGLIVASPNFCHKEHALQALGKHKHVLCEKPMAISLEEASIMKDTAERLSVRASMGFNYRYLSYVNILKSLIINNELGNILSIKVHFKKNSALRRKKFTWRDDANSKKTSGSLGDLGIHLIDMVWYLFESDFITESVRAKMNTNVKTKEDKQVLVDDYAEIYGQLRNKVFVNIITSKCSVPEDCGFSIEVVGHKKEFKYHTGNPHVYKLIDGLNVVDCPVPQSLLNDPPNEFYGWADSFRSELINWIASTQNDWVEIPSFSDGFRSQEVLEMFFEKDSNSQPMSVSAVNEGHHHHHH”, the “soluble on expression in E. coli” value was “soluble”.
In the case of “MSQMMQMYQQVGPAQFSAMIGQFAPYFASIAPQFVELRPGYAEVTFPKRREVLNHIGTVHAIALCNAAELAAGTMTDASIPAGHRWIPRGMTVEYLAKATGDVRAVADGSQIDWQATGNLVVPVVAYVDDKPVFRAEITMYVSQA”, the “soluble on expression in E. coli” value is reported as “soluble”.
For “MKHSVNAMAGGHGAARYNSTDLPKLPAPQPIKTLKHFLDFAQALQSKKEFQETKQIVNDFVVKDLPKLQELLQKRADALPNWLTPWWLNIAYLAARTPLPVVTSPGVMFPKFDYNTEEGQLEYAAKISQAAVHFYLRAKNNQLKPDMAGKSPLDMSQYQFLFGTTRVPKVGVDEIRYGCDYKEKLQHILVIRNGHLFRVQVLDSNEQPLSIFAITQQLAKVVSESQTPNPHPVGIVSSDSRDKWANVYSSLKKDNNNAKSLEAVEKSLFVVCLDKASEPPVGYTEKDEQSRQALHGGGSKVNSSNRWFDKTIQFVIGTNGYTGMTYEHTPAEGPPVGALMDFICDQFDANTFITEGTPSNSPVQRLDISTDEEINKRIAKSSKNMDSIAEDLDIVAFTFKPYGKNFPKSSKISPDSFIQMAYQLAFYRIHSSLPPTYETATLRKFTEGRTENIRSPNTAAASFVKKMVSKPPTPVSEIYDALVHATNSHKKYTMDCMDAAGMDRHLLAWKLIATENNLPTPEIFGSNIYQQLNHFQVSTSQVPTRHFIQMCFGPSALDCYGICYNPQETELHFMISTFKSYGSTSSKKFAKELQKALIDMKSVINKATKEMSKL”, the “soluble on expression in E. coli” value was “not soluble”.
With “MILNILRLPHADEPTTSQSVQDYPLVHFSPRRHQKFRTIISVGDSDVIKDSSLTDEELYNIIHASPIARKSSTVSSTDSGYLGSSGASSSCVRSREGSTVSSTITVERTRRGGSTASSEPDSVADSEGAGSYSSFSSIASTASRMLGRAADCLVLMTKRNGWSGDAGSPSDEKGSSLDAQSWTTAIQSALMPVTPQSSVVGGKRIDKLKVPTEGKTRPPY” the “soluble on expression in E. coli” value was “not soluble”.
For “TLPFRIGHGFDLHRLEPGYPLIIGGIVIPHDRGCEAHSDGDVLLHCVVDAILGALGLPDIGQIFPDSDPKWKGAASSVFIKEAVRLMDEAGYEIGNLDATLILQRPKISPHKETIRSNLSKLLGADPSVVNLKAKTHEKVDSLGENRSIAAHTVILLMKK”, the “soluble on expression in E. coli” value was “soluble”.
In the case of “QVQLQESGPGLVRPSQTLSLTCTVSGFSLTGYGVNWVRQPPGRGLEWIGMIWGDGNTDYNSALKSRVTMLKDTSKNQFSLRLSSVTAADTAVYYCARERDYRLDYWGQGSLVTVSSG”, the “soluble on expression in E. coli” value is reported as “soluble”.
With “MGSDKIHHHHHHMLEGEFLSVAELKDLTLSLASKFLNNLLASKLLVSKQLFIDRKKELGLLEERLKSGKAQFIVIYGRRRVGKTALILEFLRRHGGLYLLARETSEIENLERFSLRLAEYFNDSFLKKNPLRSLDAFFEYLSTKAEKPFIIAIDEFPYLVKGNKALPSILQEYWEMKLSKKKIFLIVSGSSVSMTERLLGYKSPLYGRRTAQLKLKPLDFFNAREFLPKYSLEDFVRVYGILGGTPAYLLEFSDEKSLEENLKSYFRVDSLLYGDALFILREELDEPRNYFAIMEAIARGNTTLGEIVNETGLERATVGKYLSVLIDLDLVRREVPITASRKSRKGRYYIADNYFAFWFRYVYPNADLIESGNGELLVDTVMDDIDHYTGEVFEGVAKEFLLRLNKSERLPFRFSRVGRWWYKNEEIDLVALNEREKKVLFIEVKWKDLSKREARGILKDLKRKAKLVGLDEWGKHYGLVAKSVRGKDEIKEEGWLAWDLEDIHRMAF” the “soluble on expression in E. coli” value was “not soluble”.
In the case of “MDYDRYKLFVGGIAKETSEEALKQYFSRYGAVLEAVVAKEKVTGKPRGFGFVRFANDCDVVKALRDTHFILGKPVDVRKAIRKHELYQQPFSMQFLERKVQQMNGGLREMSSNGVTSRTKKIFVGGLSSNTTEEEFKSYFERFGRTTDVVVMHDGVTNRPRGFGFVTYDSEDSVEVVMQSNFHELSDKRVEVKRAIPKEGIQSNNGNAVNIPPSYSSFQATPYVPEQNGYGMVLQFPPPVFGYHHNVQAVQYPYGYQFTAQVANVSWNNPIMQPTGFYCAPPHPTPPPTNNLGYIQYMNGFDLSGTNISGYNPLAWPVTGDAAGALIHQFVDLKLDVHSQAHQRMNGGNMGIPLQNGTYI”, the “soluble on expression in E. coli” value is reported as “soluble”.
For “MGSDKIHHHHHHMALRIYGDSISGNCLKVKWTADRLGIAYDWIETNVLTAETRTSAFMALNPAGQVPLAVFPDGRPLAQSNAIIFHLAEGSDLIPGNAFDRAKMLEWMFWEQYSHEPYIAVARFQVLYLGKPVESLEPRLIERGADALARLETQLQRSTFLVGDKLTLADVALVAYTRVAHEGGFDLSLYPAVEAWVGRVEADLGIR”, the “soluble on expression in E. coli” value was “not soluble”.
